Measured values taken from publication PMC9671113.

Experiments:
[1] = biological target: trimeric pre-fusion SARS-CoV-2 spike glycoprotein (pre-S) (SARS-CoV-2 (Wuhan-Hu-1 strain) | Phage T4) (UniProt P0DTC2); experiment: SEC
[2] = biological target: trimeric pre-fusion SARS-CoV-2 spike glycoprotein (pre-S) (SARS-CoV-2 (Wuhan-Hu-1 strain) | Phage T4) (UniProt P0DTC2); experiment: negative-stain electron microscopy (called Cryo-EM by the paper)

“trimeric pre-fusion SARS-CoV-2 spike glycoprotein (pre-S) (from UniProt P0DTC2 14-1201) (domain or fragment)” was tested. Which stoichiometry N [1] did it give?
The stoichiometry N was 3.

And the stoichiometry N [2]?
Its stoichiometry N is 3.
